Experimental findings from paper PMC4229036 are described below.

The assay concerns the target Donor-labeled human factor Xa (fluorescein-EGR-chloromethylketone at the active site) (human). Nature of the assay: fluorescence polarisation. In general terms: Fluorescence polarisation rises when a labelled molecule tumbles more slowly, as on binding a larger partner.

The substance “Recombinant human factor Va (FVa2) with a N2181Q mutation (natural protein)” had a fluorescence anisotropy of active-site fluorescein (200 µM C6PS) of 0.21, a fluorescence anisotropy of active-site fluorescein (400 µM C6PS) of 0.22, a fluorescence anisotropy of active-site fluorescein (700 µM C6PS) of 0.22 and a fluorescence anisotropy of active-site fluorescein (on membranes) of 0.22.
